Molecular target: the molecule itself
Test: native gel or EMSA

B1: Strep-tagged VP40[change] (VP40 truncated after residue 194) (domain or fragment)
chain: MRRVILPTAPPEYMEAIYPVRSNSTIARGGNSNTGFLTPESVNGDTPSNPLRPIADDTIDHASHTPGSVSSAFILEAMVNVISGPKVLMKQIPIWLPLGVADQKTYSFDSTTAAIMLASYTITHFGKATNPLVRVNRLGPGIPDHPLRLLRIGNQAFLQEFVLPPVQLPQYFTFDLTALKLITQPLPAATWTDD
Q: Which “stoichiometry N” value does the source give for B1 here?
A: 8

Source: publication PMC8568338 (Cell reports, 2021)
